Experimental data reported in the supplement of paper PMC7125110.
± gives the standard error. Variants at the floor of the assay were thinned out.

B1: glmS ribozyme (parent)
chain: AUAAAAGCGCCAGAACUACAGAAAUGUAGUUGACGAGGAGGAGGUUUAUCGAAUUUUCGGCGGAUGCCUCCAAA

Variants of: B1
Assay: self-cleavage kobs at 2500 uM GlcN6P; higher = faster cleavage; RNA array
Conditions: with glucosamine-6-phosphate
Summary of the method: (§1)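 Ribozyme variants carrying barcodes were transcribed in situ on sequenced MiSeq chips by E. coli RNA polymerase and tracked at 37 °C with a hybridised Cy3 probe. They were exposed to 40 μM to 10 mM glucosamine-6-phosphate in HEPES/KCl/Mg(OAc)2 buffer. kobs came from exponential decay fits of normalised per-tile medians, and kcat and KM from weighted Michaelis–Menten fits.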

Row | Variant | self-cleavage kobs at 2500 uM GlcN6P [s⁻¹]
1 | A15G G59C G60U | < 1e-05
2 | U30C G38C U46C | < 1e-05
3 | A12G U56C C67U | < 1e-05
4 | G13C G62C A64C | < 1e-05
5 | A12G U31A G38C G40U G41A C58A | < 1e-05
6 | G29U A33G G40A | < 1e-05
7 | A12U C50G G66C C70A | 5.12e-05 ± 2e-05
8 | U30C C58G C70U | 5.76e-05 ± 1.9e-05
9 | G29C A48U G60C | < 1e-05
10 | U30C A36U A48C | < 1e-05
11 | G13A A39U A64U | < 1e-05
12 | A15G U47A C58G | 4.72e-05 ± 1.4e-05
13 | G29C G40U U46C C67A | < 1e-05
14 | G29A G32U G60C | < 1e-05
15 | G29A U69C C70U | 5.97e-05 ± 1.6e-05
16 | A15G A39U A64C | 0.000106 ± 2.7e-05
17 | C16U G43C U45G | 0.000762 ± 0.00024
18 | A14U U30C A53C | < 1e-05
19 | A15U G38U U69G | 0.000183 ± 4.2e-05
20 | A15U G29C G40U | 3.13e-05 ± 1.2e-05
21 | A15U G40U U49A G60U | < 1e-05
22 | U30A G38U G40C | < 1e-05
23 | A15C U47G C68G | 5.59e-05 ± 1.6e-05
24 | G13C A15C G32U G44A G59U | < 1e-05
25 | A14C U31A U54C U57A | 0.000121 ± 3.3e-05
26 | U30A A33U C58G U69C | 0.000281 ± 8.6e-05

Row | Variant | self-cleavage kobs at 2500 uM GlcN6P [s⁻¹]
27 | U30A C68G | 7.09e-05 ± 1.5e-05
28 | G29U U49A C70G | 5.3e-05 ± 1.9e-05
29 | G13A C34U G43U | < 1e-05
30 | G13U U47A U56G | 0.000242 ± 6e-05
31 | C16A G41A A42U | < 1e-05
32 | G13U U31C C70U | 0.000186 ± 4.5e-05
33 | G13A U46C G60A | < 1e-05
34 | G13U G35A C67A | < 1e-05
35 | U30A G43U | < 1e-05
36 | A14U G29U A48U A53U G62U | < 1e-05
37 | C16U U46G U47C C70U | 0.00139 ± 0.00038
38 | C16U U55G C67G | 0.000952 ± 0.00032
39 | G29U G38C G59A | < 1e-05
40 | U30G G43C A48C | < 1e-05
41 | A12U G32A G60A | < 1e-05
42 | G13C U45A U46C | 5.29e-05 ± 1.6e-05
43 | A15U G35U A48C A64U | < 1e-05
44 | A12U G40A U57A A64C | < 1e-05
45 | G29C U46G U55G | 3.45e-05 ± 1.5e-05
46 | A14G U57A U65G | 4.18e-05 ± 1.4e-05
47 | A15G A36G G44U G60C | < 1e-05
48 | A15C G43U C67A | 0.000235 ± 7.7e-05
49 | A15C G41U U57C A64U | < 1e-05
50 | A14C A39U G43U A64U | < 1e-05
51 | A12G U30G U46G | < 1e-05
52 | A12U A33U U49A C68A | < 1e-05

Row | Variant | self-cleavage kobs at 2500 uM GlcN6P [s⁻¹]
53 | A12U G41U A42G G51C | < 1e-05
54 | G26U U54C G59U U69G | < 1e-05
55 | A14G A53G G66A | 0.0162 ± 0.0057
56 | U30C A53U G66U U69G | 0.000128 ± 2.7e-05
57 | U30C G40C G62A | < 1e-05
58 | G29U G41U C67G | < 1e-05
59 | G29C A36U A52G | < 1e-05
60 | C16G A36U A48G C58A | < 1e-05
61 | G29C C67A C68G | 7.78e-05 ± 2.8e-05
62 | U30G G32A A42U A48G | < 1e-05
63 | U30A G38A A52G | < 1e-05
64 | A14U A39G G41U | 0.000106 ± 2.6e-05
65 | G29C U31C C70A | 7.34e-05 ± 3.4e-05
66 | G29C A48C U49C | < 1e-05
67 | A14G G38A G40A | < 1e-05
68 | C16U G41C C70A | 0.000347 ± 0.00017
69 | A14U G38C A42U | < 1e-05
70 | C16U C34A A36C C58A | < 1e-05
71 | A14G G37C A39G | 6.41e-05 ± 1.9e-05
72 | C16U G51U A52C C68A C70U C71U | < 1e-05
73 | A15U U54G C58A | 3.84e-05 ± 1.4e-05
74 | A15U A36G A39U | < 1e-05
75 | A15C C16G A39C U46G U56C | < 1e-05
76 | U30C U31A A36G C50A U57G | < 1e-05
77 | A15C U31C C71A | 0.000185 ± 3.9e-05
78 | A12U A15C G41C C61U G66A | < 1e-05

Variants of: B1
Assay: self-cleavage kobs at 10000 uM GlcN6P; higher = faster cleavage; RNA array
Conditions: with glucosamine-6-phosphate
Summary of the method: as §1

Row | Variant | self-cleavage kobs at 10000 uM GlcN6P [s⁻¹]
79 | G29A U69C C70U | 7.72e-05 ± 1.5e-05
80 | A14C U31A U54C U57A | 9.39e-05 ± 1.9e-05
81 | G13U U47A U56G | 0.000374 ± 6.2e-05
82 | G13U U31C C70U | 0.000187 ± 3.2e-05
83 | U30A G43U | < 1e-05
84 | A14U G29U A48U A53U G62U | < 1e-05
85 | A14G U57A U65G | 6.87e-05 ± 1.5e-05
86 | A12U A33U U49A C68A | < 1e-05
87 | A12U G41U A42G G51C | < 1e-05
88 | A14U G38C A42U | < 1e-05
89 | A15U A36G A39U | < 1e-05
